In publication PMC3340421 (Biochemistry, 2009):

Key:
[1] = [Re^II(bpy•−)]* couple; cited from earlier work
α2 = α2 (Escherichia coli, UniProt P00452); assay: peptide binding to α2 by steady-state emission titration; parameters: species or system E. coli; conditions: 5 μM peptide, α2 0→65 μM, pH 7.5
[2] = time-resolved emission of free [Re]-peptides; assay type: physicochemical; conditions: free peptide
[3] = MP-FRaP
[4] = biological target: Ac-Y-βC19 peptide C-terminal 19-residue peptide (Escherichia coli) (UniProt P69924); conditions: cited from earlier work
[5] = cited from earlier work
[6] = biological target: [Re]-Y-βC19 peptide (C-terminal tail of beta2) 356-375 (Escherichia coli, UniProt P69924, Re(bpy)(CO)3CN appended at N-terminus of peptide); assay: steady-state emission titration
[7] = α2 radius by DLS or crystal structure and Einstein-Stokes diffusion coefficient; conditions: for diffusion coefficient kd2: Einstein-Stokes, 25 °C, η ∼1 cP

Chain of [Re]-Y-βC19 peptide (C-terminal tail of beta2) 356-375 (P69924 356-375): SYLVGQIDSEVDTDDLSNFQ

Re(bpy)(CO)3CN [[Re]]
excited state reduction potential E° [1]: 1.59 V vs. NHE

CC[C@H](C)[C@H](NC(=O)[C@H](CCC(N)=O)NC(=O)CNC(=O)[C@@H](NC(=O)[C@H](CC(C)C)NC(=O)[C@H](Cc1ccc(O)cc1)NC(=O)c1ccnc(-c2cc(C)ccn2)c1)C(C)C)C(=O)N[C@@H](CC(=O)O)C(=O)N[C@@H](CO)C(=O)N[C@@H](CCC(=O)O)C(=O)N[C@H](C(=O)N[C@@H](CC(=O)O)C(=O)N[C@H](C(=O)N[C@@H](CC(=O)O)C(=O)N[C@@H](CC(=O)O)C(=O)N[C@@H](CC(C)C)C(=O)N[C@@H](CO)C(=O)N[C@@H](CC(N)=O)C(=O)N[C@@H](Cc1ccccc1)C(=O)N[C@@H](CCC(N)=O)C(=O)N[C@@H](CC(C)C)C(=O)O)[C@@H](C)O)C(C)C [[Re]-Y-βC19]
change of emission band upon binding to α2 (α2): the emission band blue shifts and increases in intensity
emission decay lifetime τ1 ([2]; pH 12, bi-exponential fit): 0.5 ns
emission decay lifetime τ2 ([2]; pH 12, bi-exponential fit): 3.0 ns
fraction of emission decay component τ1 ([2]; pH 12, bi-exponential fit): 86%
fraction of emission decay component τ2 ([2]; pH 12, bi-exponential fit): 14%
emission lifetime τ ([2]; pH < 10): 62 ± 2 ns
diffusion coefficient kd1 [3]: 6.1 × 10^−7 cm^−1 s^–1

ribonucleotide reductase alpha2 (from UniProt P00452)
Kd [4]: 20 µM

CC(=O)N[C@@H](Cc1cc(F)c(O)c(F)c1)C(N)=O [Ac-3,5-F2Y-NH2]
pKa of 3,5-F2Y amino acid in solution [5]: 7.2

B1: Ribonucleotide reductase R1 subunit alpha2 (protein)
chain: MNQNLLVTKRDGSTERINLDKIHRVLDWAAEGLHNVSISQVELRSHIQFYDGIKTSDIHETIIKAAADLISRDAPDYQYLAARLAIFHLRKKAYGQFEPPALYDHVVKMVEMGKYDNHLLEDYTEEEFKQMDTFIDHDRDMTFSYAAVKQLEGKYLVQNRVTGEIYESAQFLYILVAACLFSNYPRETRLQYVKRFYDAVSTFKISLPTPIMSGVRTPTRQFSSCVLIECGDSLDSINATSSAIVKYVSQRAGIGINAGRIRALGSPIRGGEAFHTGCIPFYKHFQTAVKSCSQGGVRGGAATLFYPMWHLEVESLLVLKNNRGVEGNRVRHMDYGVQINKLMYTRLLKGEDITLFSPSDVPGLYDAFFADQEEFERLYTKYEKDDSIRKQRVKAVELFSLMMQERASTGRIYIQNVDHCNTHSPFDPAIAPVRQSNLCLEIALPTKPLNDVNDENGEIALCTLSAFNLGAINNLDELEELAILAVRALDALLDYQDYPIPAAKRGAMGRRTLGIGVINFAYYLAKHGKRYSDGSANNLTHKTFEAIQYYLLKASNELAKEQGACPWFNETTYAKGILPIDTYKKDLDTIANEPLHYDWEALRESIKTHGLRNSTLSALMPSETSSQISNATNGIEPPRGYVSIKASKDGILRQVVPDYEHLHDAYELLWEMPGNDGYLQLVGIMQKFIDQSISANTNYDPSRFPSGKVPMQQLLKDLLTAYKFGVKTLYYQNTRDGAEDAQDDLVPSIQDDGCESGACKI
Kd [6]: 9 µM

B2: α2: active site-containing subunit of RNR, E. coli class I, homodimer (protein, UniProt P00452 1-761, looked up)
Ribonucleoside-diphosphate …: B1 chain
diffusion coefficient kd2 ([7]; DLS radius 55.8 Å): 3.9 × 10^−7 cm^2 s^−1
diffusion coefficient kd2 ([7]; crystal structure radius 40.4 Å): 5.4 × 10^−7 cm^2 s^−1
radius estimated from crystal structure ([7]; eq 5 with d1, d2, d3 = 100.7, 71.4, 73.2 Å): 40.4 Å
